Results published in PMC3685266.

Experiments:
[1] = target: SecA_(Δcys), SecA without cysteine residues (E. coli) (UniProt P10408); assay: steady-state ATPase activity titration; 80 nM SecA, 1 mM ATP, TKM buffer, increasing vesicles reconstituted with purified SecYEG, with 0.6 μM proOmpA_(Δcys), with or without 10 mM DTT
[2] = target: SecA_(D337C/K482C), intramolecularly disulfide cross-linked (clamp closed) (E. coli) (UniProt P10408); assay: steady-state ATPase activity titration; 0.15 μM SecA, 1 mM ATP, TKM buffer pH 7.5, 0.03% C12E9, 25°C, increasing purified detergent-solubilized SecYEG, with or without 10 mM DTT; apparent affinity from a ligand-binding fit

fold increase in affinity in the presence of proOmpA [1]: 5 fold
fold increase in apparent affinity over the SecA (Δcys) control [2]: 500 fold
Substance: SecYEG complex (from UniProt P0AGA2 1-443; P0AG96 1-127; P0AG99 1-110)
